# The DeepSol protein solubility set
# Assay: soluble on expression in E. coli; label from the status in PepcDB or PDB records
row,Sequence,soluble on expression in E. coli
1,MLPEIWKHDSPYFRPEGDTRGEAVLPIGMPMRQQYDFSSSRKNPYAAKLKKPVTIRLDEESISYFKSMSEETGIPYQSLINLYLKECAASGKRLNLSWK,not soluble
2,MLPLIYHSIYSRLELPEGHRYPIMKYQYLYEEVRRDVQAEWVQFFEPQALSIEAIKRVHDADYVDLLAQGNMPAAKMRRIGFPWSEALITRTLTSAAG,not soluble
3,MLPPGMVAAESDFYLRRLWGLPHEDLKSEPRYLATFTVGINQKANIDACVKKFSENFTIVLFHYDGRVTEWDEFEWSKTAIHISVRKQTKWWYAKRFLHPDIVARYDYIFVWDEDLGVEHFNAEEYVKMVKKHGLEISQPGLEPNQGLTWQMTKRRGDMEVHKITEERPGWCSDPHLPPCAAYVEIMAPVFSRNAWRCVWHVIQNDLVHGWGLDFALRRCVEPAHEKIGVVDSQWVVHQSFPSLGNQGEATDGKAPWQGVRDRCKKEWTMFQSRMANAEKDYFKSLQVEGSSNSTATTI,soluble
4,MLQGDITMRYNSLNSYLKEKFGCKIYKLALSGGLSCPNRDGTISTGGCIFCSNGGSGDFAADKMLSITEQIESAKNRVSAKIKNGKYIAYFQSFTNTYGDIDYLRSIFTEAINHPDIVALSIGTRPDCLPDEVLNLLGELNKIKPVWVELGLQTIHENTAKYINRGYTLDVFNTAVNNLNKINVDVIVHLIIGLPFESKEDILESVKYVSSMNISGIKLQLLHVLKNTPLEKEYSLNKFEVLSMEEYVNIIAECLRYIPKSIVIHRLTGDGPKSILVAPLWSGNKKAVLNYMNKRFNELNVIQGSLCS,not soluble
5,MLQHKILGLDVGSRTVGIAISDIMGWTAQGLDTLRINEENNELGIDQLVDIIKKHNVGTVVIGLPKNMNNSIGFRGEASLTYKEKLLEAYPSIEIVMWDERLSTMAAERSLLEADVSRQKRKQVIDKMAAVFILQGYLDSLHLEHHHHHH,soluble
6,MLQVRVKPGVEDRIRGFFPWVYRSEIASFSRKPKKGEIVVVRDVNGKFLGYGYINPEVNIAIRILSFDKNEPVTPELIRKRIKQAYEYRKRLYINSNAYRLVHSEGDLLPGLIVDVYGSYLAVEFTTYGMNQFREVILDTLVELLRPKGIYEKVNEIAKRVEGLDVEERVIYGEVPEEVIIWEHDLKYYINIPQGQKTGFFLDQRNARKFVRNLVEPGDRCLDVFCHTGGFALNMKRAGAGEVIGVDISELALKEAEKNARLNGFTDIKWVKANAFDYLRELDKKGEKFDVIIIDPPSFAKNRAAVPNALRGYKELCVRGLKIAKSGGYLAIFSCSFHITEQHLLDVLLQASYDVRRQVRVIAKTFQDLDHPWILQMPNTLYLKGVWVEVV,soluble
7,MLREVVHRFGESDFTFLSVLDSYALLDRIDPAAFVKDEQMPYWAEIWPAAVTLSRQIVETGELAGKSVLELGAGVGMASIAAARSGARVLCTDYSTEALRFVAYNAMKNRVPLDTARLDWRMVKGAEKFDAVIAADVLYERVNLLPIVTAIDALLAPGGAAYIADPRRRLADQFLELVHENGFEVAETRMFDAEGDQTVAVTIYKLQRLKALEHHHHHH,not soluble
8,MLRPYVAEWFRSTYGSFTEPQRQAIPLVKQGKSVLITSPTGTGKTLAAFLGVIDEILFLMENRWEEKGILAVYVSPLRALNNDIRRNLEEPLRGIEEKAREMGLEPPRVKVAVRTSDTTPYEKQKMVKDPPHILITTPESLAAALAAPKFRERLSTVKWVVLDEIHELASNKRGAHLMVSVERLEELVREAGGKPLRRIGLSATIAPLDVVANFLGGFDDEGRPREVHIVDARFAKPIDIKVITPDVDLLRDPPDKINEAIYRKIAELVKQHRTTLIFTNTRSATERVVHKLKQILVKEGIASEDQIEAHHSSLSRNLRLDVEERLKRGELKVVVSSTSLELGIDIGYIDLVILLSSPKSVSRLLQRVGRAGHRIRDVSKGRLIVVDRDDLVECSVLADCAMKKFIDRVRIPMKPLDVLAQHIVGMSIEKKWRLEDAYRVVKRAYNFKDLSFEEFMSVVRFLAGKHGLEGEGVYSKIWLDEEEGLFGRKKSARMIYLLNVGVIPDETKIRVYTRDGKYVGDLEEEFVEILVPGDVFVLGGRTYRFLKSEGLRVIVERADDARPTVPSWFSEMLPLSFDSALKVGEFRRVFSALASSNPRAAVEKLVKEYYLEERAAATIVEYILEQLGYIGVVPSDKLVLIEYFPYEDGWGIVFHTLFGRRVNDALSRAYAVALSRRIGLPVRVAVTDNGFMLTVSEAGKPDASLLEKLIRDVTPENIRGILEEAISRTELMKRRFKHVAARMFIVLRRYKGKEVSPERLQLNSQKLLEVFLEEMKDSPPIRETFREILEDYMDIGAAGKVLEWIRKGEIEIVIKGPLPYPSPMAHSIVVRGYSDVVLMEDRRKMLMILREKVLEYIRKGRAAPTWVGGDGKGRLLKEEQ,soluble
9,MLRQLTFLFPTKFHRGKKLRTQRYRGLQSKEKKKLSLLTTKFSDEAWGDNHKNKVVYRAQDRFHNPLFIVLMVVKKKLDHKKLIDNNSHYHVCI,not soluble
10,MLSAAAFAADKVVKLPKPNLNRTGTVMKALSERQSTREYASKALTLADLSDLLWAANGINRSDAGKRTAPSAMNKQDVDVYVILSEGSYLYDAKNHQLNLIAEGDYRGAVAGGQAFVKTAPVSLVLISDVSRFGDAQKIQNQLMGAMDAGIVSQNISIFCSAAKLATVPRASMDAAQLKKVLKLKDSQIPMMNHPVGYFK,not soluble
11,MLSCELYRMSTYSTFPAGVPVSERSLARAGFYYTGVNDKVKCFCCGLMLDNWKRGDSPTEKHKKLYPSCRFVQSL,soluble
12,MLSDITIHNLGVIPSASLELSEGLTVLTGETGAGKTMVVTGLRLLAGGRAEAQRVRSGSSQAVVEGRFLLDSVAPESAEMARAVVSAAGGALDENGEVIVSRTVSAHGRSRAHLGGRSVPAASLVEFSKEVLTIHGQNDQLRLLNSDRQRDALDRFSQKISALMTVYSEAYRAWKNLSKDLQERQASKRELAQEVDRLEFAIREISEVDPQPGEEADLLVQIARLQDVDDLRAQAVGALSVIDGAAGVEGYATCDSSDADAASDLIGQALSSVRVSSDPTLQGVSQQLEAVTSILMEVSAQLGGFLDELPADPQMLDKLLQRQQALKQLTRKYASDIDGVIKWKLKAEQKLESIDVSPEALDQLKKETALAERKMNDAGMALRAARIEAAQELSNAVTKELHGLAMPKAMFSVVVHPTEPQPSGFDEVEFCLAPNNATDPRPLASSASGGELSRVMLALEVILSAGQHGNTLVFDEVDAGVGGRAAVEIGRRLARLAQNNQVIVVTHLPQVAAYADTHLHVAKDVGESTVTSGVEKLSEQRRVEDLARMLAGLEDTDTGRAHAKELFEKAQAENRAFRV,not soluble
13,MLSEWQNHKAQLRNYVYKRVDDASAVDDILQDVYIKASSNLHQLKSKGSLKGWLYKIAYNTIMDFYRDKLPYDELPEDLVAEDEDAVEESRKEIAECMRPLIDELPDKYSVPLRLAELDGIPQQEIADKLGLSLSGAKSRIQRGRVKFRENLMTCCDFEINDGGMVTGYTPKKTNCSSPKR,not soluble
14,MLSFEQSYAPSRNMKLLLVEPSGSYFNDSCCSEPNSPDSGFSSDDSISSDASFAERLTRSKTLPSALRRSRSKQSVKRVRFADSLGLDLENLQYFVKEDLHLQKFNIHFSTPSSSTPPPQLPHFPKQLINQPAPRLVLHNFPYRSEQEYQVKTRDSRVCVAALRASGSSIVGQVNLLNVAFDKVVVVRYTIDGWATQDEIVASYSHRLFDTEDIDAFNFTIAIPVKLSEGKCEFCVQYQVAGAEFWDNNGGDNYIVNVSTKGPSSPFTRCYGASTGLPDAPRGSTRRQQQRRWGRALEESDEETPYVSSAPRRGAHFH,not soluble
15,MLSFPRPHSLVEGVVSAIRREIVSGRLPAESKMPTEHELADQFSVSRSVVREAISQLKADGVLVIRRGSGSFVSQTPGGTVFRLPGNEDHSAGLAKLFELRSWIEIQVASVAAQRHTDADLKRLSDAMLLMESNAGNFEISSKADCEFHCAIVAACKNEYLTAFHDFLGSQLIQARFMAWENSSKLEIGPSGAIREHREIFDAIAKRNPSEAAHCARMHLKAAALRLNIDLAD,not soluble
16,MLSIHDPLLIFTDLDGTLLNSHTFEWQPAAPWLTRLHESGVPVILCSSKTAAEMLQLQTTLNLQGLPLIAENGAVIQLDVHWEDHPNYPRLIAGISHNEIRLVLHKLREKEQFKFTTFDDVDDQVISEWTGLNRAQSALTRLHEASVSLIWRDSDERMAQFVARLNDLGLQFVHGARFWHVLDASAGKDQAANWLIEAYRRQWRARPLTLGLGDGPNDAPLLDVMDYAVVVKGLNREGVHLRNDDPQRVYRSQNEGPDGWREGMDYFFSRSLEHHHHHH,soluble
17,MLSKKRSMSFAKRTLLSVSLSLVSGLSFAKMYELPEDGSRLIGRLENHVVQQGETMANIAKHYDVGMLALMAANKGVDPFLPQEGRVLTIPSQLILPEVPHQGIVINLAELRLYYFPEGEDVVHVFPVGIGRIGRDTPVMTTSISQKRPNPTWTPPASIRAEYRAKGVDLPAVVPAGPDNPLGLFALRLAYGNGEYLIHGTNKDFGIGMRVSAGCIRMDPSDIEWLFDKVRRGEKVNIINQPVKVSLEPDRSVFVEAHEPLTRSNGEKDHLQVPKELGWWLNEFGLTNVKAKAVIAAQNGVPVEITAP,not soluble
18,MLSNMLDVNLEKMERFAAKVWRKYGKEDPLAQLSFNEYDYLKVIQSAPQAIRLTDLALALEVSKPSASNMLKRLERRGLVKRVQCQSDARSQLFELTEQAELHLASEAKVYQILAEQVAQNLSSEEAMMLDLLLGKALR,not soluble
19,MLSRMRRKHFLSQTEHTFSRQEVSLWKEKQMICFMMNPSRKHIWASREEINMDHVVITIARQYGSGGRTVGKMLAERLGISFYDKQIIHMASDESGIDVNLFGKIEAGDKIKSSLFGNKSSIYKGDLVLPGNKDFISDENLFNYQAKVVNDLAEKESYVIVGRCVNYVFKDRPNTLRVFIHAPWEFRVEQASQKISGSREDVEKFLLKDDKRKQDYYRKFAGGQWSDATNYDLCLNSGKLGFDKCVDAIETQLKIMLGK,not soluble
20,MLSSHLSQICFSCRDPLGNLPADLIRKCTDLMDLNFAEGQRLRTLNKNWKLALPSFRKGAYREERPWLLYRERGSGETRFFDPVRERVHRGNDPRLADARFLGSTLGWLVMSESLDLNPRKTHQTFLYNPFISELQQLPELTLDSPYPTGVLRYGVLTGNPSDNNTYACLITDYLHEIGNRRDTYTLLIYYVAKTSGRWEQNWSVASMLVVGIFDTWYIESISPSPDKISIEIWPKRYDFTFQTQEWNVSNFIPVDPIQWDPFHDQSLYHVKHRLQLPENPSTLAIIIGTSTDRTRVRNKIIGDQSDDDDPRASDHIIDGVWVEVRP,soluble
21,MLSSTCTAAVRGLSTTAQLSKINNVTIIGAGLMGSGIAQVSANAKLNVTVVDSNQSALEKAQQGIANSLKRVAKKKHADDAAAQTALVSSVLDRIKMSTNVSDSVKDADLVIEAIVENIDIKRKLFAEVEVAAKPTTLITTNTSSLRLADIGLNLKDKSRFGGLHFFNPVPMMKLLEVVRHTETSDATFNQLVDYGKTVGKTTVACKDTPGFIVNRLLVPYMFEALRLYERGDASMEDIDVAMKLGAGYPMGPFELSDYVGLDTCKFIMDGWHAQYPEEVAFTPSPLLNSLVDSGKNGRKSGEGFYKYK,not soluble
